{"source": "patent US20210332111A1", "about": "(WASHINGTON UNIVERSITY, published 2021)", "key": {"[1]": {"target": "T1, recombinant ZIKV DIII (domain III of the E protein, strain H/PF/2013, residues 299 to 407) (Zika virus, strain H/PF/2013, UniProt A0A024B7W1 591-694)", "experiment": "BLI, equilibrium"}, "[2]": {"target": "T1, recombinant ZIKV DIII (domain III of …)"}, "[3]": {"target": "T1, recombinant ZIKV DIII (domain III of …)", "experiment": "BLI, biotinylated mAb on streptavidin sensor, DIII in solution; KD (equilibrium)"}, "[4]": {"target": "T2, recombinant WNV E ectodomain (strain New York 1999) (West Nile virus, strain New York 1999, UniProt Q9Q6P4 291-694)", "T2 construct": "range 291-694", "T2 sequence": "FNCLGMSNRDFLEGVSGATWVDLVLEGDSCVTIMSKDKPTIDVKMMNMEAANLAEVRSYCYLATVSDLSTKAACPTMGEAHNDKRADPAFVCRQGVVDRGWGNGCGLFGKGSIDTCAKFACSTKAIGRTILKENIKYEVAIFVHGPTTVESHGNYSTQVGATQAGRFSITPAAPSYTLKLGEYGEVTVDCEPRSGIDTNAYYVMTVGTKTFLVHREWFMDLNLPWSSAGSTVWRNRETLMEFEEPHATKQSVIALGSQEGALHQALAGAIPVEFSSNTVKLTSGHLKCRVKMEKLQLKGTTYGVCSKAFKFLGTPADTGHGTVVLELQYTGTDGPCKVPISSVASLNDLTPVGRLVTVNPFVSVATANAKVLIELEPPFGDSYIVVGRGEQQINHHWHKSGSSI", "experiment": "ELISA on plate-adsorbed WNV E"}, "[5]": {"target": "ZIKV strain H/PF/2013 (French Polynesia, 2013), infectious virus (Zika virus, strain H/PF/2013)", "experiment": "cell-based or functional assay"}, "[6]": {"target": "T3, ZIKV quad-fusion-loop variant of the E ectodomain (ZIKV E-FL) (Zika virus, strain H/PF/2013)", "T3 construct": "Variant of m8", "experiment": "direct ELISA, antigen coated at 2 µg/ml, mAb at 0.5 µg/ml, OD 450 nm"}, "[7]": {"target": "T1, recombinant ZIKV DIII (domain III of …)", "experiment": "BLI; half-life calculated from the dissociation constant, kd kinetic"}, "DENV4 E": {"target": "T4, DENV4 E", "T4 construct": "also called DV4-E; recombinant DENV-4 E ectodomain", "experiment": "direct ELISA, antigen coated at 2 µg/ml, OD 450 nm"}, "ZIKV": {"target": "T5, ZIKV", "T5 construct": "also called ZIKV H/PF/2013-infected Vero cells", "experiment": "flow cytometry, infected cells fixed and permeabilized, mAb at 10 µg/ml, Alexa Fluor 647 anti-mouse IgG"}, "[8]": {"target": "T6, recombinant soluble ZIKV E protein ectodomain (strain H/PF/2013) (Zika virus, strain H/PF/2013)", "T6 construct": "also called ZIKV E ectodomain; monomeric form of the ectodomain of E", "experiment": "direct ELISA, antigen coated at 2 µg/ml, mAb at 0.5 µg/ml, OD 450 nm"}, "[9]": {"target": "T1, recombinant ZIKV DIII (domain III of …)", "remark": "listed apart in the source"}, "[10]": {"target": "T1, recombinant ZIKV DIII (domain III of …)", "remark": "listed apart in the source"}, "[11]": {"target": "ZIKV subviral particles (SVPs, prM-E of strain H/PF/2013) (Zika virus, strain H/PF/2013)"}}, "note": "Where “and” joins values, the source holds several entries; their conditions need not be identical. Equal entries are not always repeated. Where two headings read alike, the source gives them in different places.", "data": [{"binder": "ZV-2 monoclonal antibody (antibody, V domains shown, also called ZIKV-2) VH: QVQLQESGAELMKPGASVKLSCKTSGYTFIGYWIEWLKQRPGHGLEWVGEIFPGSGRTKYNEKFKGRATFTADTSSNMAYMQLSSLTTEDSAIYYCARYYYGSYYALDYWGQGTSVTVSS VL: DIVMTQSPSSLSVSAGEKVTLSCKSSQSLLHSGNQKNYLAWYQQKPGQAPKLLIYGASTRESGVPDRFTGSGSGTDFTLTISSVQAEDLAVYYCQNDHSYPLTFGAGTKLELK", "values": [{"measurement": "Kd", "setting": "[1]", "result": "> 0.25", "unit": "µM"}, {"measurement": "Kd", "setting": "[2]", "result": "0.121 µM and 0.295 µM"}, {"measurement": "Kd", "setting": "[3]", "result": 0.266, "unit": "µM"}, {"measurement": "binding result", "setting": "[4]", "result": "no binding (tested: 0.5 µg/ml)"}, {"measurement": "% Neutralization (undiluted sups), focus reduction on Vero cells", "setting": "[5]", "result": "< 30", "unit": "%"}, {"measurement": "binding result", "setting": "[6]", "result": "binds"}, {"measurement": "t1/2", "setting": "[7]", "result": 0.3, "unit": "min"}, {"measurement": "binding result", "setting": "DENV4 E", "result": "no binding (tested: 0.5 µg/ml)"}]}, {"binder": "ZV-48 monoclonal antibody (antibody, V domains shown, also called ZIKV-48) VH: QVQLQQPGAELLKPGASVKLSCKASGYSFSNYWMHWVKQRPGQGPEWIGMIHPNSGNTKYNEKFKNKATLTVDKSSSMVYMQLSSLTSEDSAVFYCARLGNDMDYWGQGTSVTVSS VL: DIVMSQSPSSLAVSVGEKITMSCKSSQSLLYSNNEKNYLAWYQQKPGQSPKLLIYWASARDSGVPDRFTGSGSGTDFTLTISSVKAEDLAVFYCQQYYSYPYTFGGGTKLEIK", "values": [{"measurement": "binding result", "setting": "ZIKV", "result": "binds"}, {"measurement": "Kd", "setting": "[1]", "result": "~0.035", "unit": "µM"}, {"measurement": "Kd", "setting": "[2]", "result": "0.0268 µM and 0.0352 µM"}, {"measurement": "koff", "setting": "[2]", "result": 0.0038, "unit": "s⁻¹"}, {"measurement": "kon", "setting": "[2]", "result": 148000, "unit": "M⁻¹ s⁻¹"}, {"measurement": "Kd", "setting": "[3]", "result": 0.035, "unit": "µM"}, {"measurement": "binding result", "setting": "[4]", "result": "no binding (tested: 0.5 µg/ml)"}, {"measurement": "% Neutralization (undiluted sups), focus reduction on Vero cells", "setting": "[5]", "result": 100, "unit": "%"}, {"measurement": "binding result", "setting": "[6]", "result": "binds"}, {"measurement": "binding result", "setting": "[8]", "result": "binds"}, {"measurement": "t1/2", "setting": "[7]", "result": 3.2, "unit": "min"}, {"measurement": "binding result", "setting": "DENV4 E", "result": "no binding (tested: 0.5 µg/ml)"}]}, {"binder": "ZV-54 monoclonal antibody (antibody, V domains shown, also called ZIKV-54) VH: QVQLQQSGVGLARPGTSVKLSCKASGYSFTTYGISWVTQRPGQGLEWIGVIYPRSNNTYYNERFRGKATLTADKSSSSAYLELRGLTAEDSAVYFCARENYGSVYWGQGTTLTVSS VL: DIVMTQSQKFMSTSVGDRVTITCKASQSVGTAVAWYHQKPGQSPKLLIYSASNRYTGVPDRFTGSGSGTDFTLTITYMQSEDLADYFCQQFSNYPFTFGGGTKLEIK", "values": [{"measurement": "binding result", "setting": "ZIKV", "result": "binds"}, {"measurement": "Kd", "setting": "[1]", "result": "< 0.01", "unit": "µM"}, {"measurement": "koff", "setting": "[9]", "result": 0.000312, "unit": "s⁻¹"}, {"measurement": "kon", "setting": "[9]", "result": 149000, "unit": "M⁻¹ s⁻¹"}, {"measurement": "Kd", "setting": "[3]", "result": 0.0079, "unit": "µM"}, {"measurement": "binding result", "setting": "[4]", "result": "no binding (tested: 0.5 µg/ml)"}, {"measurement": "% Neutralization (undiluted sups), focus reduction on Vero cells", "setting": "[5]", "result": 100, "unit": "%"}, {"measurement": "binding result", "setting": "[6]", "result": "binds"}, {"measurement": "binding result", "setting": "[8]", "result": "binds"}, {"measurement": "t1/2", "setting": "[7]", "result": 33, "unit": "min"}, {"measurement": "binding result", "setting": "DENV4 E", "result": "no binding (tested: 0.5 µg/ml)"}]}, {"binder": "ZV-67 monoclonal antibody (antibody, V domains shown, also called ZIKV-67) VH: QAQLQQSGTGLARPGASVKLSCKASGYTFTSYGISWVTQRAGQGLEWIGVIYPRSGNTYYNEKFRGKATLTADKSSSSAYMELRGLTAEDSAVYFCARENYGSVYWGQGTTLTVSS VL: DIVMTQSQKFMSTSVGDRVSITCKASQNVGTAVAWYQQKPGQSPKLLIYSASNRYTGVPDRFTGSGSGTDFTLTISNMQSEDLADYFCQQFSSYPYTFGGGTKLEIK", "values": [{"measurement": "binding result", "setting": "ZIKV", "result": "binds"}, {"measurement": "Kd", "setting": "[1]", "result": "< 0.01", "unit": "µM"}, {"measurement": "Kd", "setting": "[3]", "result": 0.0088, "unit": "µM"}, {"measurement": "Kd", "setting": "[10]", "result": "0.00677 µM and 0.00989 µM"}, {"measurement": "binding result", "setting": "[4]", "result": "no binding (tested: 0.5 µg/ml)"}, {"measurement": "% Neutralization (undiluted sups), focus reduction on Vero cells", "setting": "[5]", "result": 100, "unit": "%"}, {"measurement": "binding result", "setting": "[6]", "result": "binds"}, {"measurement": "binding result", "setting": "[8]", "result": "binds"}, {"measurement": "t1/2", "setting": "[7]", "result": 13.8, "unit": "min"}, {"measurement": "binding result", "setting": "DENV4 E", "result": "no binding (tested: 0.5 µg/ml)"}, {"measurement": "EC50 (read off the curve)", "setting": "[11]", "result": "~5", "unit": "ng/mL"}]}]}
